Here are results for two molecules from US20240181125A1 (published 2024).

Primed or numbered codes have the meaning given here. Ends that are not written are not given here. FITC′ = not defined here

Test in all cases: ELISA-like binding assay
A general note: ELISA stands for enzyme-linked immunosorbent assay.

Test [1] deals with T1, TGFβ receptor I (TβR1), R&D, coated on ELISA plate.
T1 chain: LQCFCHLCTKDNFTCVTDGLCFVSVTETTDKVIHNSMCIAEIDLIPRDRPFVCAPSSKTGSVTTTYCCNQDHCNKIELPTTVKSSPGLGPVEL

In test [2] the target is IgG.
Test [3] deals with TβR3.

Broadly, the Kd is the equilibrium constant for the complex coming apart. High values mean lower affinity, low ones higher affinity. In test [1], ECGLLPVGRPDRVWRLCK-{FITC′} (cysteine pairing not given here) [peptide-based TGFβ receptor II inhibitor (PTβR2I), ECGLLPVGRPDRVWRLCK-FITC] came in with a Kd of 35.2 µM.

As for ECGLLPVGRPDRVWRLCK-{FITC′} (cysteine pairing not given here) [PTβR2I], the Kd in test [2] came to 83 µM; in test [3], 41.1 µM.
